One substance from paper PMC2686087 can be followed below.

For test [1], the target named is CaV2.2/α2δ-2 calcium channel coexpressed with wild-type β2a (UniProt Q05152).
For test [2] the target is unchanged. The source holds these as a separate data set.
Test [3] has as its target CaV2.2/α2δ-2 calcium channel coexpressed with β2a-ΔvHOOK (UniProt Q05152).
Test [4] addresses CaV2.2/α2δ-2 calcium channel coexpressed with β2a-SH3 (1–135) and β2a-GK (226–442) (UniProt Q05152).

Turning to “Gβγ (from UniProt P62873 1-340; P59768 1-71) (complex)”, the basal facilitation (P2/P1) ratio at +10 mV without agonist in test [1] was found to be 1.43. Further, in test [2], the dissociation rate of Gβγ at +120 mV (from τdissoc) came out at 46.9 s⁻¹ and the time constant for rebinding of Gβγ at −100 mV (reinhibition after the prepulse) was 248 ms. Moreover, in test [3], the dissociation rate of Gβγ at +120 mV (from τdissoc) amounted to 29.7 s⁻¹ and the time constant for rebinding of Gβγ at −100 mV (reinhibition after the prepulse) is 296 ms. Besides, in test [4], the basal facilitation (P2/P1) of peak IBa at +10 mV in the absence of agonist was determined as 2.61 and the time constant for the removal of tonic inhibition (τdissoc) at +120 mV was determined as 29.1 ms.
